Measured values taken from patent US20230050972A1 (MOMENTA PHARMACEUTICALS, published 2023).
Residue numbers refer to the chain shown, from its start.

B1: 6-P20 (antibody, V domains shown)
VH: EVQLQQSGPELVKPGASVKISCKASGYTFTDYYMNWVKQSHGRSLELIGDINPNNGGSNFNQKFRGKATLTVDKSSSTAYMELRSLTSEDSAIYYCARMGYWGQGTLVTVSA
VL: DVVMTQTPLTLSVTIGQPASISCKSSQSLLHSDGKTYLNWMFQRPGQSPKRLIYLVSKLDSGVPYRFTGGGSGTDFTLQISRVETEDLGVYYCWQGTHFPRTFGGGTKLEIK
notes: mouse hybridoma IgG
B2: 6-B21 (antibody, V domains shown)
VH: EVQLQQSGPELVKPGASVKISCKASGYTFTDYYMNWVKQSHGKSLEWIGDINPHNGGTSFIQKFKGKATLTVDKSSSTAYMELRSLTSEDSAVYYCAPLGRKEGFAYWGQGTLVTVSA
VL: DTVLTQSPASLVVSLGQRATISCRASKSVSTSGYSYMHWYQQKPGQPPKLLIYLASNLESGVPARFSGSGSGTAFTLNIHPVEEEDAATYYCQHSRELPYTFGGGTKLEIK
notes: mouse hybridoma IgG
B3: 2-A3 (antibody, V domains shown)
VH: EVQLQQSGPELVKPGASVKMSCKASGYTFTDYYMMWVKQSHGKSLEWIGDINPYNGGSSYNPKFKGRATLTVDKSSSTAYMQLNSLTSEDSAVYYCARGTYWGQGTLVTVSA
VL: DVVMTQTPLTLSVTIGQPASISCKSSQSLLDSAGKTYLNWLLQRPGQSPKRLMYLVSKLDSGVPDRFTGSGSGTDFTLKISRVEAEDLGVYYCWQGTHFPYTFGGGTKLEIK
notes: mouse hybridoma IgG
B4: 6-A15 (antibody, V domains shown)
VH: EVQLQQSGPELVKPGASVKMSCKASGYTITDYYMMWLKQSHGKSLEWIGDINPYTGGTSYNQKFKGKATLTVDKSSSTAYLQLHSLTSEDSAVYYCARGAYWGQGTTLTVSS
VL: not shown
notes: mouse hybridoma IgG
B5: 6-M8 (antibody, V domains shown)
VH: QVQLQQPGAELVMPGASVKLSCKASGYTFTNYWMHWVKQRPGQGLEWIGEIDPSDSYTNYNQKFKGKATLTVDKSSSTAYMQLSSLTSEDSAVYYCTRQGSTYAWGQGTSVTVSS
VL: DIVMTQAAFSNPVTLGTSASISCRSSKSLLHSNGITYLYWYLQKPGQSPQLLIYQMSNLASGVPDRFSSSGSGTDFTLRISRVEAEDVGVYYCAQNLELPPTFGGGTKLEIK
notes: mouse hybridoma IgG
B6: 6-O12 (antibody, V domains shown)
VH: EVKLEESGGGLVQPGGSMKLSCAASGFTFSDAWMDWVRQSPEAGLEWVAEIRNKAHNPATYYAESVKGRFTISRDDSKSSVYLQMNSLRAEDTGIYYCTLVAPDAMDYWGQGTSVTVSS
VL: DIVMSLSPSSLAVSVGEKVTMSCKSSQSLLYSRNQKNYLAWYQQKPGQSPKLLIYWASTRASGVPDRFTGSGSGTDFTLTISSVKAEDLAVYYCQQYYSYPYTFGGGTKLEIK
notes: mouse hybridoma IgG
B7: 8H8E9 (antibody, V domains shown)
VH: QVQLKESGPGLVQPSQTLSLTCTVSGFSLTSNSVSWVRQAPGKGLEWMGAIWSGGSTDYNSALKSRLSISRDTSKSQVFLKMNSLQTEDTAIYFCTRSHWEPFDYWGQGVMVTVSS
VL: DIVMTQSPFSLAVSEGEMVTINCKSSQGLLSSGNQKNYLAWYQQRPGQSPKLLIYYASTRQSGVPDRFIGGGSGTDFTLTISDVQAEDLADYYCLQHYSYPPTFGSGTKLEIK
notes: rat hybridoma mAb
B8: 6E5C11 (antibody, V domains shown)
VH: B7 VH with K5R, S35T, A40P, G54D, A62T, N83S
VL: B7 VL with F9L, M18T, I21M, G28S, L30F, R45K, G71S, A86T, S99N
notes: rat hybridoma mAb
B9: 10-L15 (antibody, V domains shown)
VH: QVQLQQSGPELVRPGASVKMSCKASGYTFTSYWMHWVKQRPGQGLEWIGMIDPSNSETWLNQKFKDKATLNVDKSSNTAYMQLSSLTSEDSAVYYCARYDGYYDYWGQGTTLTVSS
VL: NIVLTQSPASLAVSLGQRATISCRASESVDSYGNSFMHWYQQKPGQPPKLLIYLASNVESGVPARFSGSGSRTDFTLTIDPVEADDAATYYCQQNNEDPWTFGGGTKLEIK
notes: mouse hybridoma IgG

target: T1, in-house generated I domain of α11β1 (human, UniProt Q9UKX5 159-349, limits assumed); experiment: binding to isolated I domain
T1 construct: domain: I domain; also called human α11β1 I domain; α11β1 I Domain
T1 sequence (looked up): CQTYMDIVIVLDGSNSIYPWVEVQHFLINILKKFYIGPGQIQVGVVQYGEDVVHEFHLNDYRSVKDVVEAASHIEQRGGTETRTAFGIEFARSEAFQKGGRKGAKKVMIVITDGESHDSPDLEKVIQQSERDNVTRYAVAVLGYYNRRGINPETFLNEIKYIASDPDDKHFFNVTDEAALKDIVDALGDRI

Question: Does B1 bind?
Answer: Result: no binding

Question: Does B2 bind?
Answer: Result: no binding

Question: Does B3 bind?
Answer: Result: no binding

Question: Does B4 bind?
Answer: Result: no binding

Question: Does B5 bind?
Answer: Result: no binding

Question: Does B6 bind?
Answer: Result: no binding

target: T2, recombinant human α11β1 (human, UniProt Q9UKX5 23-1141; P05556 21-728); experiment: ELISA on recombinant human α11β1
T2 construct: Coated in ELISA; ELISA and SPR material treated as one molecule; also called HIS-tagged human α11β1; integrin alpha 11 beta 1
Description: (§1) 0.25 μg/mL of target antigen (recombinant human or mouse α11β1) was plated in a 96-well plate over night at 4° C. Plates were washed (PBS with 0.1% Tween-20), blocked (PBS with 2% BSA and 0.05% Tween-20) for 1 hour at room temperature and incubated with a range of antibody concentrations for 1 hour at room temperature. Subsequently, plates were washed and incubated with biotinylated anti-rabbit/mouse/human IgG in a 1:1000 dilution buffer and incubated for 1 hour at room temperature. After washing the plates, Streptavidin HRP was added at 1:200 in dilution buffer and incubated for 1 hour at room temperature. Ultra TMB ELISA substrate solution was added and the plates incubated for 5 minutes on a plate shaker. The reaction was stopped by adding stop solution to each well and plates were read at 450 nm.

T2 sequence (Q9UKX5 23-1141 limits assumed, chain 1 of 2): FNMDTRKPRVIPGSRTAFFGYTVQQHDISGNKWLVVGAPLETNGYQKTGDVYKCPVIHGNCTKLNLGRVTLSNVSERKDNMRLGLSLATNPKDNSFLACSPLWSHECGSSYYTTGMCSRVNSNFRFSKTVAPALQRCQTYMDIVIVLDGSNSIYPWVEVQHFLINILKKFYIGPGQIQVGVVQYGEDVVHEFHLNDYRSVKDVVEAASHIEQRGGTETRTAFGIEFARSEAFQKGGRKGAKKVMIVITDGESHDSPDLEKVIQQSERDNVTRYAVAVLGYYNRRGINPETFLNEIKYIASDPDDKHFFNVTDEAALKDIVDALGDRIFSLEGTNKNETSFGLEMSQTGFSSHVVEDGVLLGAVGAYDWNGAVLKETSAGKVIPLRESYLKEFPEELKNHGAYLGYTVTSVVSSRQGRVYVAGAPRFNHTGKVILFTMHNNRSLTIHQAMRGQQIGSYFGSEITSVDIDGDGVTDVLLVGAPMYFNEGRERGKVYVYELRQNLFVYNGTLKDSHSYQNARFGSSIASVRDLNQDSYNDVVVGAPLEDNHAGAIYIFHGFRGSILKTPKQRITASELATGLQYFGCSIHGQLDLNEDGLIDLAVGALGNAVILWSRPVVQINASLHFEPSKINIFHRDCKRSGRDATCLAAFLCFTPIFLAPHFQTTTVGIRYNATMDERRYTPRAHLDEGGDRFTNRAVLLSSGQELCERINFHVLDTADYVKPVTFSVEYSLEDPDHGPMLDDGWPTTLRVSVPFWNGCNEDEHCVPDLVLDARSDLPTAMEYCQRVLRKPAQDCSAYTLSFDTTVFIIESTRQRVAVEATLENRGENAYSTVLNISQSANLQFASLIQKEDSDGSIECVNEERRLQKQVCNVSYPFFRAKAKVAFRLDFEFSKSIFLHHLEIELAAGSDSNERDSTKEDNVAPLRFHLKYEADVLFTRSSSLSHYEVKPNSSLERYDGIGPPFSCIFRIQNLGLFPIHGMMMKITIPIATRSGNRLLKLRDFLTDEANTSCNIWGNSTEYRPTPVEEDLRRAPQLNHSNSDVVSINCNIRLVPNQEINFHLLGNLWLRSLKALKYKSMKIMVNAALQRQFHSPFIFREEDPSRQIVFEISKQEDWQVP
T2 sequence (P05556 21-728 limits assumed, chain 2 of 2): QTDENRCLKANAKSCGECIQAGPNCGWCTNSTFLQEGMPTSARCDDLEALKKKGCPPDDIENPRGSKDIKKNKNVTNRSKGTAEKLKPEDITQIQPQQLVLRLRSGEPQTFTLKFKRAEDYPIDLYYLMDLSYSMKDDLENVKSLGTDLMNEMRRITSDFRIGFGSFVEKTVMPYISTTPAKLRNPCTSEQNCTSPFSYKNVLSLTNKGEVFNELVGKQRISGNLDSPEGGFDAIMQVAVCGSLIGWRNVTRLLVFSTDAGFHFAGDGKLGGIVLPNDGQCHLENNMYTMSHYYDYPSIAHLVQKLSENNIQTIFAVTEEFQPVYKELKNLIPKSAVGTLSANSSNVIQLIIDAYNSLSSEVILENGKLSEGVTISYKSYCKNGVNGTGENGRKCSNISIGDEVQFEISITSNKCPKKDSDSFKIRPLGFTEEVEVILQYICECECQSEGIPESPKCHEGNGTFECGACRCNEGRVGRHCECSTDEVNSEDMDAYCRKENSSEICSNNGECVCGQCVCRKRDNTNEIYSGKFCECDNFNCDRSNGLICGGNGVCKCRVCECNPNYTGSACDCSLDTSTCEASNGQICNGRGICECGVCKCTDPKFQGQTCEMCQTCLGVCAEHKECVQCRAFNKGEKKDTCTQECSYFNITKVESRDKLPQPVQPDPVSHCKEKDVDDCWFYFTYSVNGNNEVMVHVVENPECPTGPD

Question: Does B7 bind?
Answer: Result: binds

Question: Does B8 bind?
Answer: Result: binds

Question: Does B1 bind?
Answer: Result: binds

Question: Does B2 bind?
Answer: Result: binds

Question: Does B9 bind?
Answer: Result: binds

Question: Does B3 bind?
Answer: Result: binds

Question: Does B4 bind?
Answer: Result: binds

Question: Does B5 bind?
Answer: Result: binds

Question: Does B6 bind?
Answer: Result: binds

target: T3, recombinant mouse α11β1 (mouse, UniProt P61622 23-1141; P09055 21-728, limits assumed); experiment: ELISA on recombinant mouse α11β1
T3 construct: also called murine α11β1
Description: as §1

T3 sequence (P61622 23-1141 limits assumed, chain 1 of 2): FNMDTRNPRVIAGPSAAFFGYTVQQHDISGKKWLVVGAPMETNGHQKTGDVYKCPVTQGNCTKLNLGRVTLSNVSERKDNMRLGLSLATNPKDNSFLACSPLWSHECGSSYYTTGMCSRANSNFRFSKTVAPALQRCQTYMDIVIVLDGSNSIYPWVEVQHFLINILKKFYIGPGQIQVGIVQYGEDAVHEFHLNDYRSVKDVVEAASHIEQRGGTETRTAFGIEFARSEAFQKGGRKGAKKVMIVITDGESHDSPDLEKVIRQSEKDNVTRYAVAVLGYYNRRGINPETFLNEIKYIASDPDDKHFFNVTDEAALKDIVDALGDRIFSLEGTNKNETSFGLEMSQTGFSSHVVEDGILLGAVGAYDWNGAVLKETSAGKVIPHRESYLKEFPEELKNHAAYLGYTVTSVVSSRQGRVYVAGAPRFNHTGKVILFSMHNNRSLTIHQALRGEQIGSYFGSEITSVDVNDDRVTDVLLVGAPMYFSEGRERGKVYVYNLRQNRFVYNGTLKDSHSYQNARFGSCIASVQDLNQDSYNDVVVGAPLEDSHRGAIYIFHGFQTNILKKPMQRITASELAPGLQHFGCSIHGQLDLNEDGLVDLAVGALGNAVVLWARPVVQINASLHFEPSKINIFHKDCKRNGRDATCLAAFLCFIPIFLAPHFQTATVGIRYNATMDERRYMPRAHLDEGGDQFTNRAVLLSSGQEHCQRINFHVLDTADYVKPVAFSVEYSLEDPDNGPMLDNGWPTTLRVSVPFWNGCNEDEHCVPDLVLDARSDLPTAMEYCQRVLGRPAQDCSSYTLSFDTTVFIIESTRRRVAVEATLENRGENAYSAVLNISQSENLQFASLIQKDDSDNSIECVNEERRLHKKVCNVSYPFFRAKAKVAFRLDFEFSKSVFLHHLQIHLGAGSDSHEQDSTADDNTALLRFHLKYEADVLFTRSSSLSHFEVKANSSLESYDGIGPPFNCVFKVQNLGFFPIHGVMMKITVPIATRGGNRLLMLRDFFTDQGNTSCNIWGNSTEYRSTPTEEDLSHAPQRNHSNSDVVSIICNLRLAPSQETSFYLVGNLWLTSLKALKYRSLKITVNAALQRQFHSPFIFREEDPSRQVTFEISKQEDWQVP
T3 sequence (P09055 21-728 limits assumed, chain 2 of 2): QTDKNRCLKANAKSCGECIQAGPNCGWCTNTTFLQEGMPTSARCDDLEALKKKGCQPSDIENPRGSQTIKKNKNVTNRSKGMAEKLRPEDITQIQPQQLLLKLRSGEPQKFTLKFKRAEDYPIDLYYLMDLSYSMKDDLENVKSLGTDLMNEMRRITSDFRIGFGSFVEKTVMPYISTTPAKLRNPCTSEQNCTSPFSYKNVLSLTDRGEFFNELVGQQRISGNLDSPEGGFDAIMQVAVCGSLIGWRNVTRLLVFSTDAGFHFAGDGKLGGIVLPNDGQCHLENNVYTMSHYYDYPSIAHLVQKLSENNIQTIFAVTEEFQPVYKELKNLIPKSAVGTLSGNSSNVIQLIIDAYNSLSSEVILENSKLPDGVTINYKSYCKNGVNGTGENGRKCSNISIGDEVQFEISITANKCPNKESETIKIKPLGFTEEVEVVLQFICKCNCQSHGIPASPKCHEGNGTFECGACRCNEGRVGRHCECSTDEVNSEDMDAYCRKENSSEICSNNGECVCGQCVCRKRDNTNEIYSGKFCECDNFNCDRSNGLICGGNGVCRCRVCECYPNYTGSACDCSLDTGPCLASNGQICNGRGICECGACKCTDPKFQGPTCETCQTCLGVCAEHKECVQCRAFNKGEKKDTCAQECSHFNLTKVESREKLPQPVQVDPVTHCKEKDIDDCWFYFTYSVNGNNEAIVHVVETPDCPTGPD

Question: Does B7 bind?
Answer: Result: no binding

Question: Does B8 bind?
Answer: Result: no binding

Question: Does B1 bind?
Answer: Result: no binding

Question: Does B2 bind?
Answer: Result: binds

Question: Does B9 bind?
Answer: Result: binds

Question: Does B3 bind?
Answer: Result: binds

Question: Does B4 bind?
Answer: Result: binds

Question: Does B5 bind?
Answer: Result: no binding

Question: Does B6 bind?
Answer: Result: no binding
